Measured values as given in article PMC12599251, “Nitration-driven structural changes in Hsp90 linked to gain of pathological functions” (Biochemical Journal, 2025).

Molecular target: the molecule itself
Assay: AUC; sedimentation velocity, 42,000 rpm, 20°C, 11-15 uM protein, absorbance at 280 nm, continuous c(S) distribution (SEDFIT); peroxynitrite-treated samples dialyzed beforehand

Protein | stoichiometry N
Human Hsp90β with Y33 and Y56 replaced by phenylalanine (natural protein, Human Hsp90β, UniProtKB P08238, gene HSP90AB1; Y33 and Y56 replaced by nitration-resistant phenylalanine; also called Hsp90^F33-56; Hsp90^F33-F56; source: E. coli BL21-AI, purified (Ni-NTA, Sephacryl-300 SEC)) not shown | 2
Human Hsp90β with Y33 and Y56 replaced by phenylalanine, treated with 0.5 mM peroxynitrite (natural protein, oxidised with 0.5 mM peroxynitrite; Y276, Y484 and Y596 are named as also prone to nitration, Human Hsp90β, UniProtKB P08238, gene HSP90AB1; Y33 and Y56 replaced by phenylalanine, oxidised in vitro with peroxynitrite; Peroxynitrite gives a mixed product; also called Hsp90^F33-56 + ONOO^-; Hsp90^F33-F56 + ONOO^-; source: E. coli BL21-AI, purified (Ni-NTA, Sephacryl-300 SEC), then treated with 0.5 mM peroxynitrite) not shown | 2
